Assay results reported in patent EP3088890B1 (Chugai Seiyaku Kabushiki Kaisha, dated 2020).

T1: GPC3 peptide 521-550 (SEQ ID NO: 27) (human)
T1 construct: Synthetic 30-residue peptide of GPC3
T1 peptide: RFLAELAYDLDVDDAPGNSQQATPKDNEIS

T2: GPC3 peptide 441-470 (SEQ ID NO: 23) (human)
T2 construct: Synthetic 30-residue peptide of GPC3
T2 peptide: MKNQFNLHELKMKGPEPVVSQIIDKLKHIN

T3: GPC3 peptide 501-530 (SEQ ID NO: 26) (human)
T3 construct: Synthetic 30-residue peptide of GPC3
T3 peptide: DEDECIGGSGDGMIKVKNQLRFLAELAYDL

T4: GPC3 peptide 201-230 (SEQ ID NO: 11) (human)
T4 construct: Synthetic 30-residue peptide of GPC3
T4 peptide: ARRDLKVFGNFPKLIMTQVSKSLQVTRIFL

T5: GPC3 peptide 61-90 (SEQ ID NO: 4) (human)
T5 construct: Synthetic 30-residue peptide of GPC3
T5 peptide: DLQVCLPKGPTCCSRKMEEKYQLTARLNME

T6: GPC3 peptide 361-390 (SEQ ID NO: 19) (human)
T6 construct: Synthetic 30-residue peptide of GPC3
T6 peptide: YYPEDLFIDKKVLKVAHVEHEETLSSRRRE

T7: GPC3 peptide 281-310 (SEQ ID NO: 15) (human)
T7 construct: Synthetic 30-residue peptide of GPC3
T7 peptide: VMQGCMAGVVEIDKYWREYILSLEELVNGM

T8: GPC3 peptide 341-370 (SEQ ID NO: 18) (human)
T8 construct: Synthetic 30-residue peptide of GPC3
T8 peptide: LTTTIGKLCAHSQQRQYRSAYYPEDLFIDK

T9: GPC3 peptide 321-350 (SEQ ID NO: 17) (human)
T9 construct: Synthetic 30-residue peptide of GPC3
T9 peptide: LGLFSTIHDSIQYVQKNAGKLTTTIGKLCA

T10: GPC3 peptide 181-210 (SEQ ID NO: 10) (human)
T10 construct: Synthetic 30-residue peptide of GPC3
T10 peptide: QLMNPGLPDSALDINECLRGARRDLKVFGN

T11: GPC3 peptide 461-490 (SEQ ID NO: 24) (human)
T11 construct: Synthetic 30-residue peptide of GPC3
T11 peptide: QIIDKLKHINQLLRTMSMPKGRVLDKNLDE

T12: GPC3 peptide 301-330 (SEQ ID NO: 16) (human)
T12 construct: Synthetic 30-residue peptide of GPC3
T12 peptide: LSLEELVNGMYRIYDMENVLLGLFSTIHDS

T13: GPC3 peptide 551-580 (SEQ ID NO: 29) (human)
T13 construct: Synthetic 30-residue peptide of GPC3
T13 peptide: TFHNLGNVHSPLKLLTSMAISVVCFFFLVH

T14: GPC3 peptide 401-430 (SEQ ID NO: 21) (human)
T14 construct: Synthetic 30-residue peptide of GPC3
T14 peptide: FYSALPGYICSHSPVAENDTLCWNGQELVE

T15: GPC3 peptide 81-110 (SEQ ID NO: 5) (human)
T15 construct: Synthetic 30-residue peptide of GPC3
T15 peptide: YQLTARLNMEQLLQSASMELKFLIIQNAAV

T16: GPC3 peptide 241-270 (SEQ ID NO: 13) (human)
T16 construct: Synthetic 30-residue peptide of GPC3
T16 peptide: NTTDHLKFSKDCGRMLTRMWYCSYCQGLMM

T17: GPC3 peptide 1-30 (SEQ ID NO: 1) (human)
T17 construct: Synthetic 30-residue peptide of GPC3
T17 peptide: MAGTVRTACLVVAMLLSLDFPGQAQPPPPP

T18: GPC3 peptide 221-250 (SEQ ID NO: 12) (human)
T18 construct: Synthetic 30-residue peptide of GPC3
T18 peptide: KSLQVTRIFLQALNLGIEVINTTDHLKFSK

T19: GPC3 peptide 21-50 (SEQ ID NO: 2) (human)
T19 construct: Synthetic 30-residue peptide of GPC3
T19 peptide: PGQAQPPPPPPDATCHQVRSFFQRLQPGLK

T20: GPC3 peptide 101-130 (SEQ ID NO: 6) (human)
T20 construct: Synthetic 30-residue peptide of GPC3
T20 peptide: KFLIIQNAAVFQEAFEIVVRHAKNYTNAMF

T21: GPC3 peptide 481-510 (SEQ ID NO: 25) (human)
T21 construct: Synthetic 30-residue peptide of GPC3
T21 peptide: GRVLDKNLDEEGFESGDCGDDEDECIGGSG

T22: GPC3 peptide 121-150 (SEQ ID NO: 7) (human)
T22 construct: Synthetic 30-residue peptide of GPC3
T22 peptide: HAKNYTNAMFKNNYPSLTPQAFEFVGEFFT

T23: GPC3 peptide 541-570 (SEQ ID NO: 28) (human)
T23 construct: Synthetic 30-residue peptide of GPC3
T23 peptide: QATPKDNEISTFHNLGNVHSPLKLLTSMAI

T24: GPC3 peptide 41-70 (SEQ ID NO: 3) (human)
T24 construct: Synthetic 30-residue peptide of GPC3
T24 peptide: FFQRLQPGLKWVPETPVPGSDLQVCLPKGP

T25: GPC3 peptide 261-290 (SEQ ID NO: 14) (human)
T25 construct: Synthetic 30-residue peptide of GPC3
T25 peptide: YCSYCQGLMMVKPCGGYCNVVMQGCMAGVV

T26: GPC3 peptide 161-190 (SEQ ID NO: 9) (human)
T26 construct: Synthetic 30-residue peptide of GPC3
T26 peptide: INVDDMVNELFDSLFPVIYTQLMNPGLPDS

T27: GPC3 peptide 141-170 (SEQ ID NO: 8) (human)
T27 construct: Synthetic 30-residue peptide of GPC3
T27 peptide: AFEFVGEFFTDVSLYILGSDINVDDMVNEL

T28: GPC3 peptide 421-450 (SEQ ID NO: 22) (human)
T28 construct: Synthetic 30-residue peptide of GPC3
T28 peptide: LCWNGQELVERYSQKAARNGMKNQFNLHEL

T29: GPC3 peptide 381-410 (SEQ ID NO: 20) (human)
T29 construct: Synthetic 30-residue peptide of GPC3
T29 peptide: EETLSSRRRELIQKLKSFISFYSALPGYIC


How the values were obtained:
[1] = target: T30, AW3, C-terminally His-tagged recombinant product of positions 1 to 218 of GPC3 (human, UniProt P51654 25-218); experiment: Western blot, pellets of CHO cells expressing the product
T30 construct: Expressed in CHO cells, cell pellets used in Western blot; The range is as printed and starts at position 1; not shown: C-terminal His tag

[2] = target: T1, GPC3 peptide 521-550 (SEQ ID NO: 27); experiment: peptide ELISA, peptide on plate
[3] = target: T2, GPC3 peptide 441-470 (SEQ ID NO: 23); experiment: peptide ELISA, peptide on plate
[4] = target: T3, GPC3 peptide 501-530 (SEQ ID NO: 26); experiment: peptide ELISA, peptide on plate
[5] = target: T4, GPC3 peptide 201-230 (SEQ ID NO: 11); experiment: peptide ELISA, peptide on plate
[6] = target: T5, GPC3 peptide 61-90 (SEQ ID NO: 4); experiment: peptide ELISA, peptide on plate
[7] = target: T6, GPC3 peptide 361-390 (SEQ ID NO: 19); experiment: peptide ELISA, peptide on plate
[8] = target: T7, GPC3 peptide 281-310 (SEQ ID NO: 15); experiment: peptide ELISA, peptide on plate
[9] = target: T8, GPC3 peptide 341-370 (SEQ ID NO: 18); experiment: peptide ELISA, peptide on plate
[10] = target: T9, GPC3 peptide 321-350 (SEQ ID NO: 17); experiment: peptide ELISA, peptide on plate
[11] = target: T10, GPC3 peptide 181-210 (SEQ ID NO: 10); experiment: peptide ELISA, peptide on plate
[12] = target: T11, GPC3 peptide 461-490 (SEQ ID NO: 24); experiment: peptide ELISA, peptide on plate
[13] = target: T12, GPC3 peptide 301-330 (SEQ ID NO: 16); experiment: peptide ELISA, peptide on plate
[14] = target: T13, GPC3 peptide 551-580 (SEQ ID NO: 29); experiment: peptide ELISA, peptide on plate
[15] = target: T14, GPC3 peptide 401-430 (SEQ ID NO: 21); experiment: peptide ELISA, peptide on plate
[16] = target: T15, GPC3 peptide 81-110 (SEQ ID NO: 5); experiment: peptide ELISA, peptide on plate
[17] = target: T16, GPC3 peptide 241-270 (SEQ ID NO: 13); experiment: peptide ELISA, peptide on plate
[18] = target: T17, GPC3 peptide 1-30 (SEQ ID NO: 1); experiment: peptide ELISA, peptide on plate
[19] = target: T18, GPC3 peptide 221-250 (SEQ ID NO: 12); experiment: peptide ELISA, peptide on plate
[20] = target: T19, GPC3 peptide 21-50 (SEQ ID NO: 2); experiment: peptide ELISA, peptide on plate
[21] = target: T20, GPC3 peptide 101-130 (SEQ ID NO: 6); experiment: peptide ELISA, peptide on plate
[22] = target: T21, GPC3 peptide 481-510 (SEQ ID NO: 25); experiment: peptide ELISA, peptide on plate
[23] = target: T22, GPC3 peptide 121-150 (SEQ ID NO: 7); experiment: peptide ELISA, peptide on plate
[24] = target: T23, GPC3 peptide 541-570 (SEQ ID NO: 28); experiment: peptide ELISA, peptide on plate
[25] = target: T24, GPC3 peptide 41-70 (SEQ ID NO: 3); experiment: peptide ELISA, peptide on plate
[26] = target: T25, GPC3 peptide 261-290 (SEQ ID NO: 14); experiment: peptide ELISA, peptide on plate
[27] = target: T26, GPC3 peptide 161-190 (SEQ ID NO: 9); experiment: peptide ELISA, peptide on plate
[28] = target: T27, GPC3 peptide 141-170 (SEQ ID NO: 8); experiment: peptide ELISA, peptide on plate
[29] = target: T28, GPC3 peptide 421-450 (SEQ ID NO: 22); experiment: peptide ELISA, peptide on plate
[30] = target: T29, GPC3 peptide 381-410 (SEQ ID NO: 20); experiment: peptide ELISA, peptide on plate

T30 sequence (P51654 25-218): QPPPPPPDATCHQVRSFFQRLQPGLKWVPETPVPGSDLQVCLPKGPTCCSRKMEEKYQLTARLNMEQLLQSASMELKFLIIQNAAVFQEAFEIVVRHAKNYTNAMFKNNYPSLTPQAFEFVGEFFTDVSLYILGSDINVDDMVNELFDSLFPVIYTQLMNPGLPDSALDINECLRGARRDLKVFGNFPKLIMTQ

Row | binding result [1] | binding result [2] | binding result [3] | binding result [4] | binding result [5] | binding result [6] | binding result [7] | binding result [8] | binding result [9] | binding result [10] | binding result [11] | binding result [12] | binding result [13] | binding result [14] | binding result [15] | binding result [16] | binding result [17] | binding result [18] | binding result [19] | binding result [20] | Binder | also measured
1 | no binding | no binding (tested: 2 µg/mL) | no binding (tested: 2 µg/mL) | no binding (tested: 2 µg/mL) | no binding (tested: 2 µg/mL) | no binding (tested: 2 µg/mL) | no binding (tested: 2 µg/mL) | no binding (tested: 2 µg/mL) | no binding (tested: 2 µg/mL) | no binding (tested: 2 µg/mL) | no binding (tested: 2 µg/mL) | no binding (tested: 2 µg/mL) | no binding (tested: 2 µg/mL) | no binding (tested: 2 µg/mL) | no binding (tested: 2 µg/mL) | no binding (tested: 2 µg/mL) | no binding (tested: 2 µg/mL) | no binding (tested: 2 µg/mL) | no binding (tested: 2 µg/mL) | no binding (tested: 2 µg/mL) | GT165 antibody (antibody, IgG1, V domains shown) VH: QVQLQQSGAELVGPGASVKISCKAFGYTFTNHHINWVKQRPGQGLDWIGYINPYNDYTNYNQKFKGKATLTVDKSSSTAYMELSSLTSEDSAVYYCARSDPAWFAYWGQGTLVTVSA VL: DIQMTQSPSSLSASLGGKVTITCKASQDINKNIAWYQHKPGKGPRLLIWYTYTLQPGIPSRFSGSGSGRDYSFSISNLEPEDIATYYCLQYDNLPFTFGTGTKLEIKR | binding result [21]: no binding (tested: 2 µg/mL); binding result [22]: no binding (tested: 2 µg/mL); binding result [23]: no binding (tested: 2 µg/mL); binding result [24]: no binding (tested: 2 µg/mL); binding result [25]: no binding (tested: 2 µg/mL); binding result [26]: no binding (tested: 2 µg/mL); binding result [27]: no binding (tested: 2 µg/mL); binding result [28]: no binding (tested: 2 µg/mL); binding result [29]: no binding (tested: 2 µg/mL); binding result [30]: no binding (tested: 2 µg/mL)
2 | no binding | no binding (tested: 2 µg/mL) | no binding (tested: 2 µg/mL) | no binding (tested: 2 µg/mL) | no binding (tested: 2 µg/mL) | no binding (tested: 2 µg/mL) | no binding (tested: 2 µg/mL) | no binding (tested: 2 µg/mL) | no binding (tested: 2 µg/mL) | no binding (tested: 2 µg/mL) | no binding (tested: 2 µg/mL) | no binding (tested: 2 µg/mL) | no binding (tested: 2 µg/mL) | no binding (tested: 2 µg/mL) | no binding (tested: 2 µg/mL) | no binding (tested: 2 µg/mL) | no binding (tested: 2 µg/mL) | no binding (tested: 2 µg/mL) | no binding (tested: 2 µg/mL) | no binding (tested: 2 µg/mL) | GT607 antibody (antibody, IgG1, V domains shown) VH: EVQLVESGGDVVRPGGSLKLSCAASGFTFSSYGMSWVRQLPDKRLEWVASVGNGGSYRYYPENLKGRFTISRDNTKNTLYLQISGLKSEDTAIYYCARRGAFPYFDVWGAGTTVTVSS VL: QIVLTQSPAIMSASPGEKVTLACSASSSVTYMHWYQQKSGTSPKRWIYETSKLASGVPPRFSGSGSGTSYSLTISTMEAEDAATYYCQQWSSNPLTFGAGTKLELKR | binding result [21]: no binding (tested: 2 µg/mL); binding result [22]: no binding (tested: 2 µg/mL); binding result [23]: no binding (tested: 2 µg/mL); binding result [24]: no binding (tested: 2 µg/mL); binding result [25]: no binding (tested: 2 µg/mL); binding result [26]: no binding (tested: 2 µg/mL); binding result [27]: no binding (tested: 2 µg/mL); binding result [28]: no binding (tested: 2 µg/mL); binding result [29]: no binding (tested: 2 µg/mL); binding result [30]: no binding (tested: 2 µg/mL)
